Source: the nanobody polyreactivity screen of Harvey et al. (2022)

test: yeast display, Sf9 membrane polyspecificity reagent, FACS + sequencing; frameworks hold sequencing errors
Procedure, shortened: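 Synthetic nanobody libraries on Saccharomyces cerevisiae BJ5465 were galactose-induced for 36–48 hours, stained 1 hour at 4 °C with 10% biotinylated, detergent-solubilized Sf9 membrane reagent and enriched on streptavidin microbeads. FACS then separated cells into low and high (top ~1%) gates by anti-HA (expression) and streptavidin (reagent binding) fluorescence. Genes were colony-PCR amplified, MiSeq 2 × 250 sequenced and CDR-length filtered. A clone's polyreactivity label is that of its gate of origin.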

Row | Sequence | polyreactivity (PSR sort gate)
1 | QVQLVESGGGLVQAGGSLRLSCAASGFTFAPNAMGWYRQAPGKEREFVAVITYRSTSTFYADSVKGRFTISRDNAKNTVYLQMNSLKPEDTAVYYCNAKYLWYGRYNYWGQGTQVTVSS | high polyreactivity
2 | QVQLVESGGGLVQAGGSLRLSCAASGFTFAPYALGWYRQAPGKERELVAAIRRSGGSTYYADSVKGRFTISRDNAKNTVYLQMNSLKPEDTAVYYCAASTYQNGYGYWGQGTQVTVSS | high polyreactivity
3 | QVQLVESGGGLVQAGGSLRLSCAASGFTFARNAMGWYRQAPGKERELVASITSGGSTNYADSVKGRFTISRDNAKNTVYLQMNSVKPEDSAVYYCNALWWAPGRPGEEIYRILDYWGQGTQVTVSS | low polyreactivity
4 | QVQLVESGGGLVQAGGSLRLSCAASGFTFARYAMGWYIQAPGKEREFVAAISLSTTSTYYADSVKGRFTISRDNAKNTVYLQMNSLKPEDTAVYYCATDIVGPHVDYWGQGTQVTVSS | low polyreactivity
5 | QVQLVESGGGLVQAGGSLRLSCAASGFTFARYAMGWYRQAPGKERELVAAIDRSGGSTYYADSVKGRFTISRDNAKNTVFLQMNSLKPEDTAVYYCNAVSSFTSPRYDYWGQGTQVTVSS | high polyreactivity
6 | QVQLVESGGGLVQAGGSLRLSCAASGFTFARYAMGWYRQAPGKERELVAAISSRGGRTYYADSVKGRFTISRDNAKNTVYLQMNSLKPEDTAVYYCNAGYAHTYDYWGQGTQVTVSS | high polyreactivity
7 | QVQLVESGGGLVQAGGSLRLSCAASGFTFARYAMGWYRQAPGKERELVAAITYSGSGTYYADSVKGRFTISRDNAKNTVYLQMNSLKPEDTAVYYCYPVTRSARSYDYWGQGTQVTVSS | high polyreactivity
8 | QVQLVESGGGLVQAGGSLRLSCAASGFTFARYAMGWYRQAPGNERELVAAITRRGGSTYYADSVKGRFTISRDNAKDTVYLQMNSLKPEDTAVYYCAADSSSGSDYWGQGTQVTVSS | high polyreactivity
9 | QVQLVESGGGLVQAGGSLRLSCAASGFTFARYAMGWYTKAPGKERELVARISSDGGGTDYADSVKGRFTISRDNAKNTVYLQMNSLKPEDTAVYYCAARFPGYHYFKYYYWGQGTQVTVSS | low polyreactivity
10 | QVQLVESGGGLVQAGGSLRLSCAASGFTFARYTMGWSRQAPGKEREFVAAISWSGGRTYYADSVKGRFTISRDNAKNTVYLQMNSLKPEDTAVYYCAAEYWGVYRGFVSSFDYWGQGTQVTVSS | high polyreactivity
11 | QVQLVESGGGLVQAGGSLRLSCAASGFTFARYTMGWYRQAPGKERELVAAISSRGSSTYYADSVKGRFTISRDNAKNTVYLQMNSLKRVDTAVYYCAAPPRYGYDYWGHGTQVTVSS | high polyreactivity
12 | QVQLVESGGGLVQAGGSLRLSCAASGFTFARYTMGWYRQEPGKERELVAAISSRGSSTYYADSVKGRFTISRDNAKNTVYLQMNSLKPEDTAVYYCAAPPRYGYDYWGQGTQVTVSS | high polyreactivity
13 | QVQLVESGGGLVQAGGSLRLSCAASGFTFAVYVMGWSRQAPGKERELVATISFSVGSTYYADSVKRRFTISRDNAKNTVYLQMNSLKPEDTAVYYCNADPPPEYYPDKDNYWGQGTQVTVSS | low polyreactivity
14 | QVQLVESGGGLVQAGGSLRLSCAASGFTFAWNAMGWYRQAPGKERELVATIDVSGGSTYYADSVKGRFTISRDNAKNTVYLQMNSLKPEDTAVYYCAAVELPEGGYDYWGQGTQVTVSS | low polyreactivity
15 | QVQLVESGGGLVQAGGSLRLSCAASGFTFAWYTMGWYRQAPGKERELVAGIDWSGGSTYYADSVKGRFTISRDNAKNTVYLQMNSLKPEDTAVYYCNAAGLYYVYPGYDYWGQGTQVTVSS | high polyreactivity
16 | QVQLVESGGGLVQAGGSLRLSCAASGFTFAYNAMGWYRQAPGKERELVAAISGRGVSTYYADSVKGRFTISRDNAKNTVYLQMNSLKPEDTAVYYCAKRYRYWTTERYDYWGQGTQVTVSS | high polyreactivity
